Test results reported in patent US20110243972A1 (Johns Hopkins, published 2011).

Legend:
[1] = molecular target: T1, HLA-A3 on T2-A3 cells (HLA-A*0301) (human); assay: T2-A3 stabilisation assay, flow cytometry with GAPA3
T1 construct: Detected with the anti-HLA-A3 mAb GAPA3
From the text: (§1) T2 cells were pulsed with 225 micrograms of peptide per ml overnight at room temperature before analysis by flow cytometry. T2 cells expressing HLA-A2 (A) or HLA-A24 (C) were stained with an unlabeled mouse anti-HLA class I molecule monoclonal antibody W6/32 and a goat-anti-mouse FITC-labeled IgG2a secondary antibody. T2 cells genetically modified to express A3 (B) were stained with an unlabeled mouse anti-human HLA-A3 specific monoclonal antibody GAPA3 and a FITC-labeled IgG2a secondary antibody.
(§2) Materials and Methods. Peptide/MHC binding Assays. T2 cells expressing the HLA molecule of interest were resuspended in AimV serum free media (Gibco, Grand Island, N.Y.) to a concentration of 1×10⁶ cells/ml and pulsed with 3 μg/ml beta-2 microglobulin (β₂-M) (Sigma, St. Louis, Mo.) plus peptide at 0-225 μg/ml of peptide at room temperature overnight. The cells were washed and resuspended at 2×10⁵ cells/ml. The level of stabilized MHC on the cell surface of the T2 and T2-A24 cells were analyzed by direct staining of cell samples with unlabeled anti-class I mAb W6/32 and a FITC-labeled goat-anti-mouse IgG2a secondary antibody.

[2] = molecular target: T2, HLA-A2 on T2 cells (HLA-A*0201) (human); assay: T2 stabilisation assay, flow cytometry with W6/32
T2 construct: Class I molecule on the T2 cell surface, stabilised by peptide; Detected with mAb W6/32; also called T2-A2
From the text: as §1, §2

B1: Mesothelin A1 (309-317) peptide (EIDESLIFY) (peptide)
peptide: EIDESLIFY
B1: no binding (tested: 225 micrograms of peptide per ml) [1]; no binding (tested: 225 micrograms of peptide per ml) [2].
